Measured values from publication doi:10.1101/466946 (bioRxiv, 2018).

Target: recombinant full-length CIN85 (human, UniProt Q96B97 1-665)
Assay: SPR

Chain of recombinant full-length CIN85 (Q96B97 whole entry): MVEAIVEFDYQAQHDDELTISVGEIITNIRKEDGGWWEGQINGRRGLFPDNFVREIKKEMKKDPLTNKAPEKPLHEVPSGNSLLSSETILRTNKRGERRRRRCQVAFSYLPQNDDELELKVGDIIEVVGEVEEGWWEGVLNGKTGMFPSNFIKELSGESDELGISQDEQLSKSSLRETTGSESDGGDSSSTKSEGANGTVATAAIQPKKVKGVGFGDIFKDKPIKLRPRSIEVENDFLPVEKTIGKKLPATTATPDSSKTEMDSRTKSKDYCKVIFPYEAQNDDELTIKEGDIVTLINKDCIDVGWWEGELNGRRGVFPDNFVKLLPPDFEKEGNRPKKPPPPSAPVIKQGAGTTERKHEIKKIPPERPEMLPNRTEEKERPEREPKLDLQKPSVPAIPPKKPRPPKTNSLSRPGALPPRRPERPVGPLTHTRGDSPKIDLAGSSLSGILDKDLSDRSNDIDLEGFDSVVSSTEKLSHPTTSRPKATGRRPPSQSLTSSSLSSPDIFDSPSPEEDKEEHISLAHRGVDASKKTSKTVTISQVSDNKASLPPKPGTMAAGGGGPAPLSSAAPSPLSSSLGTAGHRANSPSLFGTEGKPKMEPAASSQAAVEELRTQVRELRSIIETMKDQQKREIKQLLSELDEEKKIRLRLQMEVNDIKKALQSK

B1: recombinant PHD2 (enzyme, human, UniProt Q9GZT9 1-426, looked up)
chain: MANDSGGPGGPSPSERDRQYCELCGKMENLLRCSRCRSSFYCCKEHQRQDWKKHKLVCQGSEGALGHGVGPHQHSGPAPPAAVPPPRAGAREPRKAAARRDNASGDAAKGKVKAKPPADPAAAASPCRAAAGGQGSAVAAEAEPGKEEPPARSSLFQEKANLYPPSNTPGDALSPGGGLRPNGQTKPLPALKLALEYIVPCMNKHGICVVDDFLGKETGQQIGDEVRALHDTGKFTDGQLVSQKSDSSKDIRGDKITWIEGKEPGCETIGLLMSSMDDLIRHCNGKLGSYKINGRTKAMVACYPGNGTGYVRHVDNPNGDGRCVTCIYYLNKDWDAKVSGGILRIFPEGKAQFADIEPKFDRLLFFWSDRRNPHEVQPAYATRYAITVWYFDADERARAKVKYLTGEKGVRVELNKPSDSVGKDVF
- Kd: 28.5 nM
